Reference: patent US20240158515A1 (Regeneron, published 2024)

How the values were obtained:
Test in all cases: SPR Biacore, mAb captured on anti-hFc, 25C
[1] = biological target: T1, murine FGFR3b expressed with a C-terminal myc-myc-hexahistidine tag (mFGFR3b.mmH) (murine)
T1 construct: also called REGN3215; monomeric murine FGFR3b
T1 chain: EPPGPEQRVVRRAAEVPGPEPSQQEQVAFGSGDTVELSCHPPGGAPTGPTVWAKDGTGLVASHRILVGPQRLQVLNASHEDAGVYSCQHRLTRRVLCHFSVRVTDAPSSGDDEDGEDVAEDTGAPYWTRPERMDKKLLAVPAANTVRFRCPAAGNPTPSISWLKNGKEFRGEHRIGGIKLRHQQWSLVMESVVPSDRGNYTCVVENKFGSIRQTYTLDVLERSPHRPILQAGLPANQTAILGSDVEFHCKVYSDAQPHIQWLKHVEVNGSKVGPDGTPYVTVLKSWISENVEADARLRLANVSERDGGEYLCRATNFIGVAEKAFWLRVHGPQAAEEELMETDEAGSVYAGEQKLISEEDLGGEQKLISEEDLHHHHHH

[2] = biological target: T2, human FGFR3b expressed with a C-terminal murine Fc tag (hFGFR3b.mFc) (human)
T2 construct: called dimeric; also called REGN3153; dimeric human FGFR3b
T2 chain: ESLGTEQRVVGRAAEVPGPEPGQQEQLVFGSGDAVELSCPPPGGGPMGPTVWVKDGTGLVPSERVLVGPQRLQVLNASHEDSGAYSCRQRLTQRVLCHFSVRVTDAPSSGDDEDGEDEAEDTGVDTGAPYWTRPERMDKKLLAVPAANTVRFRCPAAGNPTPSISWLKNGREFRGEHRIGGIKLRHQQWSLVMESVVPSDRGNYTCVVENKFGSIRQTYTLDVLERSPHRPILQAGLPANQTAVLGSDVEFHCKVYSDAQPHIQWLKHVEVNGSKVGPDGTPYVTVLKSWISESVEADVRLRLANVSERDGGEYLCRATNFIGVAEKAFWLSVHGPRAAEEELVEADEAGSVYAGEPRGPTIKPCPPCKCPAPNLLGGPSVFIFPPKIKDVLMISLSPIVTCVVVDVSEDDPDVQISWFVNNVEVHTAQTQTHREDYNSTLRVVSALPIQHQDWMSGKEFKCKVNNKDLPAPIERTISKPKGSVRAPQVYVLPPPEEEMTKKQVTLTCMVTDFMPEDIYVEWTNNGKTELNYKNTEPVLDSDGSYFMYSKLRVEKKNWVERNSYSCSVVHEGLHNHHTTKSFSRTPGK

[3] = biological target: T3, human FGFR3b expressed with a C-terminal myc-myc-hexahistidine tag (hFGFR3b.mmH) (human)
T3 construct: also called REGN3152; monomeric human FGFR3b
T3 chain: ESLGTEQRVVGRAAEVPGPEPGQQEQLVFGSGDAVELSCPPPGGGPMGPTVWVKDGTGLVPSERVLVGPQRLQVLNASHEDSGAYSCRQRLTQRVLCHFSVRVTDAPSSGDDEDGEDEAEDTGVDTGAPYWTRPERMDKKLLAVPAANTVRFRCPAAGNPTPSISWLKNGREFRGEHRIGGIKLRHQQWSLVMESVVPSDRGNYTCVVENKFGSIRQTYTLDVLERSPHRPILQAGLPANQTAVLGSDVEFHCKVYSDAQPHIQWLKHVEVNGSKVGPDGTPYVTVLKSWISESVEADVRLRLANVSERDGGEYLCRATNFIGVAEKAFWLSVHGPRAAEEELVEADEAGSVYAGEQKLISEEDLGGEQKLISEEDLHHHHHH

B1: H4H30063P (antibody, human IgG4 S228P, kappa, V domains shown)
VH: QVQLQESGPGLVKPSETLSLTCTVSGDSINSYFWSWIRQLPGKELEWIGHIYSSGSTRYNPSLQSRVTISIDTSKNQFSLKLSSVTAADTAVYYCARGASAVDYWGQGTLVTVSS
VL: EIVLTQSPGTLSLSPGERATLSCRTSQSISSGYLAWYQQKPGQAPRLLIYGASRRATGIPDRFSGSGSGTDFTLTISRLEPEDFVVYYCQQYGSSPYTFGQGTKLEIKR
notes: HCVR 2, LCVR 10; also called REGN15684
- 90 nM mFGFR3b.mmH Bind (RU) [1]: 259 RU
- Kd [1]: 0.137 nM
- koff [1]: 2.78e-05 s⁻¹
- kon [1]: 204000 M⁻¹ s⁻¹
- t½ [1]: 6.92 h
- 30 nM hFGFR3b.mFc Bind (RU) [2]: 296 RU
- Kd [2]: ≤ 0.0226 nM
- koff [2]: ≤ 1e-05 s⁻¹
- kon [2]: 442000 M⁻¹ s⁻¹
- t½ [2]: ≥ 19.2 h
- 90 nM hFGFR3b.mmH Bind (RU) [3]: 240 RU
- Kd [3]: 0.222 nM
- koff [3]: 3.83e-05 s⁻¹
- kon [3]: 172000 M⁻¹ s⁻¹
- t½ [3]: 5.03 h
